± gives the uncertainty stated by the source.
Test: self-splicing fitness, log relative to wild type (ln ratio); higher = more splicing; Tetrahymena group I intron in knt gene, E. coli kanamycin selection, DiMSum; sequences stand for … in CUCUCU…GGAGGGAAAAGUUAUCAGGCAUGCACCUGGUAGCUAGUCUUUAAACCAAUAGAUUGCAUCGGUUUAAAAGGCAAGACCGUCAAAUUGCGGGAAAGGGGUCAACAGCCGUUCAGUACCAAGUCUCAGGGGAAACUUUGAGAUGGCCUUGCAAAGGGUAUGGUAAUAAGCUGACGGACAUGGUCCUAACCACGCAGCCAAGUCCUAAGUCAACAGAUCUUCUGUUGAUAUGGAUGCAGUUCACAGACUAAAUGUCGGUCGGGGAAGAUGUAUUCUUCUCAUAAGAUAUAGUCGGACCUCUCCUUAAUGGGAGCUAGCGGAUGAAGUGAUGCAACACUGGAGCCGCUGGGAACUAAUUUGUAUGCGAAAGUAUAUUGAUUAGUUUUGGAGUACUCGUGGUCG
How it was run: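 Six replicate transformations of E. coli BL21(DE3) with a pET-22b(+) library were grown overnight at 37°C or 30°C. The library randomised all eight P1ex-region intron nucleotides, the intron lying in the knt kanamycin-resistance gene, and plates were LB agar with or without 25 μg/mL kanamycin plus 100 μg/mL carbenicillin, 50 μM IPTG and 0.2% rhamnose. Pooled colonies were amplicon-sequenced on an Illumina HiSeq 2500, and fitness is the DiMSum error-weighted combination of wild-type-normalised replicate fold changes, kanamycin versus none.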

Sequence | self-splicing fitness (ln) (30 °C) | self-splicing fitness (ln) (37 °C)
AGACAGCAAUAUUACGGCGU | -0.937 ± 0.057 | -0.314 ± 0.065
CACUAGCAAUAUUACGUACG | -0.239 ± 0.071 | 0.494 ± 0.083
AAUCAGCAAUAUUACGUUUA | -0.652 ± 0.045 | -0.106 ± 0.06
ACGCAGCAAUAUUACGAGGG | -3.71 ± 0.18 | -2.77 ± 0.21
GCUUAGCAAUAUUACGCUUC | -3.27 ± 0.47 | -1.54 ± 0.29
GGACAGCAAUAUUACGCAAC | -1.68 ± 0.15 | -0.445 ± 0.18
UCUGAGCAAUAUUACGACUA | -2.49 ± 0.19 | -1.64 ± 0.17
GCAAAGCAAUAUUACGUUAA | -1.83 ± 0.14 | -1.45 ± 0.14
UCUUAGCAAUAUUACGACCG | -1.95 ± 0.36 | -0.528 ± 0.34
UCGGAGCAAUAUUACGUUUU | -3.91 ± 0.4 | 
UUACAGCAAUAUUACGAAUA | -2.6 ± 0.3 | -1.03 ± 0.2
UGGUAGCAAUAUUACGAAAA | -2.14 ± 0.19 | -0.612 ± 0.17
CACAAGCAAUAUUACGAAAC |  | -1.91 ± 0.25
CCCUAGCAAUAUUACGUUCG | -3.63 ± 0.27 | -2.64 ± 0.33
GAUUAGCAAUAUUACGAUGU | -0.783 ± 0.074 | -0.611 ± 0.1
GUUGAGCAAUAUUACGAGCG |  | -1.37 ± 0.25
GAAGAGCAAUAUUACGCCUA | -2.55 ± 0.34 | -1.3 ± 0.25
AGUUAGCAAUAUUACGAGUU | -1.5 ± 0.086 | -0.514 ± 0.11
UGAGAGCAAUAUUACGGUUU | -2.16 ± 0.4 | 
CGGUAGCAAUAUUACGAUCC | -1.23 ± 0.22 | -1.56 ± 0.34
CUCGAGCAAUAUUACGUAAG | -2.81 ± 0.17 | -1.26 ± 0.18
GAGGAGCAAUAUUACGCUUG | -1.28 ± 0.15 | -1.27 ± 0.2
AAUUAGCAAUAUUACGCGCU | -0.647 ± 0.13 | -0.214 ± 0.2
AGAUAGCAAUAUUACGAUAA | -2.02 ± 0.11 | -1.16 ± 0.11
GACUAGCAAUAUUACGGGAC | -2.29 ± 0.17 | -1.44 ± 0.19
UUAUAGCAAUAUUACGAUCC |  | -2.87 ± 0.26
GGAUAGCAAUAUUACGCCUU | -0.526 ± 0.11 | 0.31 ± 0.1

Sequence | self-splicing fitness (ln) (30 °C) | self-splicing fitness (ln) (37 °C)
UCCAAGCAAUAUUACGGGUC | -3.16 ± 0.13 | -2.17 ± 0.14
UAUGAGCAAUAUUACGGCCU | -4 ± 0.37 | 
UGGGAGCAAUAUUACGCUAA | -2.74 ± 0.29 | -1.93 ± 0.31
CGACAGCAAUAUUACGUUGG | -2.92 ± 0.1 | -1.54 ± 0.1
UCAGAGCAAUAUUACGUGUC | -4.13 ± 0.31 | -2.63 ± 0.23
ACACAGCAAUAUUACGCGUG | -2.25 ± 0.074 | -1.68 ± 0.081
UGAAAGCAAUAUUACGAUGG | -1.59 ± 0.086 | -0.618 ± 0.11
ACUUAGCAAUAUUACGGGGG | -2.98 ± 0.23 | -1.96 ± 0.21
GUUCAGCAAUAUUACGUGUG | -0.881 ± 0.066 | -0.806 ± 0.084
UGUCAGCAAUAUUACGCGGA | -2.91 ± 0.2 | -1.52 ± 0.15
CUAGAGCAAUAUUACGGUUU | -4.03 ± 0.31 | 
AGAAAGCAAUAUUACGAAAG | -3.93 ± 0.21 | -1.94 ± 0.18
UGAAAGCAAUAUUACGAAAC |  | -1.79 ± 0.47
GGGUAGCAAUAUUACGAACA |  | -0.706 ± 0.39
ACUUAGCAAUAUUACGUAAC | -2.9 ± 0.12 | -2.43 ± 0.2
GUAAAGCAAUAUUACGACUU | 0.245 ± 0.1 | 0.464 ± 0.12
CGUGAGCAAUAUUACGAUGA | -3.64 ± 0.23 | -2.04 ± 0.17
CGGUAGCAAUAUUACGUGGU | -3.17 ± 0.21 | -2.3 ± 0.21
GAGUAGCAAUAUUACGUUCA | -0.849 ± 0.075 | -0.31 ± 0.095
UUCAAGCAAUAUUACGAAUC | -4.05 ± 0.3 | -2.75 ± 0.32
GACCAGCAAUAUUACGCCUG | -2.16 ± 0.11 | -0.614 ± 0.12
ACCAAGCAAUAUUACGCCGA | -2.23 ± 0.15 | -1.81 ± 0.16
CAAGAGCAAUAUUACGAAGG | -2.06 ± 0.17 | -0.821 ± 0.19
CCUUAGCAAUAUUACGGUAU | -3.64 ± 0.33 | -2.67 ± 0.36
GAUUAGCAAUAUUACGAACC | -0.528 ± 0.24 | -0.802 ± 0.37
GUCGAGCAAUAUUACGAGCA | -1.76 ± 0.3 | 
GUACAGCAAUAUUACGUGAU | -2.88 ± 0.07 | -0.556 ± 0.07

Sequence | self-splicing fitness (ln) (30 °C) | self-splicing fitness (ln) (37 °C)
CGUUAGCAAUAUUACGGGCG | -3.04 ± 0.24 | -2.38 ± 0.3
CGUAAGCAAUAUUACGUGGU | -3.19 ± 0.13 | -2.72 ± 0.16
UUUAAGCAAUAUUACGCGAA | -1.43 ± 0.12 | -0.145 ± 0.15
UUAAAGCAAUAUUACGGUAG | -0.312 ± 0.076 | 0.29 ± 0.11
UAGCAGCAAUAUUACGAGGG | -1.97 ± 0.21 | -1.96 ± 0.27
ACAAAGCAAUAUUACGUGGG | -3.35 ± 0.13 | -2.47 ± 0.14
GGUGAGCAAUAUUACGAGGC |  | -0.336 ± 0.33
CCUGAGCAAUAUUACGGCCA | -2.01 ± 0.34 | -2.05 ± 0.29
ACCAAGCAAUAUUACGCGAC | -3.19 ± 0.16 | -1.59 ± 0.16
CAGUAGCAAUAUUACGUCCU | -3.2 ± 0.18 | -1.43 ± 0.14
CACGAGCAAUAUUACGCCGC | -2.93 ± 0.35 | -1.33 ± 0.48
CCGUAGCAAUAUUACGAGAU | -3.86 ± 0.32 | -2.29 ± 0.3
AACCAGCAAUAUUACGAGUA | -1.07 ± 0.061 | -0.523 ± 0.075
UUUAAGCAAUAUUACGGACA | -0.552 ± 0.17 | -0.126 ± 0.16
UGCUAGCAAUAUUACGUUAA | -2.54 ± 0.14 | -0.941 ± 0.11
CACCAGCAAUAUUACGUAGU | -3.23 ± 0.075 | -1.53 ± 0.079
CCCGAGCAAUAUUACGCUCG | -3.62 ± 0.22 | -2.92 ± 0.27
UCUCAGCAAUAUUACGGUAG | -2.3 ± 0.098 | -1.99 ± 0.15
AGCGAGCAAUAUUACGCAUA |  | -1.77 ± 0.24
UGCCAGCAAUAUUACGGAUC | -3.04 ± 0.22 | -1.13 ± 0.17
CUCUAGCAAUAUUACGCCCG |  | -0.832 ± 0.42
UUCAAGCAAUAUUACGCACA | -0.531 ± 0.089 | 0.153 ± 0.13
CACAAGCAAUAUUACGUGAC | -4.87 ± 0.34 | -2.77 ± 0.2
GCCCAGCAAUAUUACGGUAC | -1.27 ± 0.059 | -0.241 ± 0.073
ACGAAGCAAUAUUACGAAAC | -2.87 ± 0.23 | 
CAAUAGCAAUAUUACGUGAU | -3.98 ± 0.14 | -2.5 ± 0.12

Source: the supplement of paper PMC7877785
